Source: the supplement of paper PMC12764529
± gives the half width of the 95% confidence interval.

Columns and labels:
[1] = folding stability dG unfold from trypsin proteolysis; higher = more stable
How it was run: (§1)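 Unfolding free energy was derived, per protease or combined, by relating Bayesian-fitted K50 values from sequencing counts to a sequence-predicted unfolded-state K50 and a shared folded-state K50. The underlying digests exposed cysteine-free mini-proteins under 80 residues, in a PA-tagged cDNA display construct, to trypsin and chymotrypsin at 11 threefold-diluted concentrations and to a no-protease condition. A filter kept only designs with AlphaFold2 dimer inter-PAE above 15.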

[2] = folding stability dG unfold from chymotrypsin proteolysis; higher = more stable
How it was run: as §1

[3] = folding stability dG unfold (combined trypsin and chymotrypsin); higher = more stable
How it was run: as §1

Sequence | folding stability dG unfold [1] [kcal/mol] | folding stability dG unfold [2] [kcal/mol] | folding stability dG unfold [3] [kcal/mol]
SAGGSAGGSAGGKPLYLRITVKNKDGSEREIVVPLDTTIDDILAALPPNVTEVKIEVFPVSAGGSAGGSAGG [r7_288_TrROS_Hall] | 3.36 ± 0.11 | 3.52 ± 0.13 | 3.52 ± 0.13
SAGGMTITIPPSVPDADVERIVEEAEATFPQPVTLTRDPGRGRWTLTFDGPEDERREAIEALAARLASAGGS [r16_227_JUSTAS] | 0.0735 ± 0.14 | 0.565 ± 0.19 | 0.434 ± 0.12
SAGGSAGGSAKKIKIKIKVYNPETKEVLELEIEVSEEEAEELAKKLAEELEKKGYKIEEVEISAGGSAGGSA [r18_3_TrROS_Hall] | 4.48 ± 0.35 | 3.47 ± 0.084 | 3.85 ± 0.12
SAGGSAGGSAGGMKTITIKVPSSVSFEEAKKKAEALFPKSIPVKVEYDPKTGTFTVTVESAGGSAGGSAGGS [r10_163_JUSTAS] | 1.77 ± 0.035 | 2.349 ± 0.015 | 2.17 ± 0.046
SAGGSAMIITFDKKTGKLTIYNKETGKKIEAEITKIEKIPEDKKYVKIKIKNKKTKKEFEFIFKIKSAGGSA [r15_209_TrROS_Hall] | 2.57 ± 0.16 | 4.39 ± 0.1 | 3.81 ± 0.38
SAGGSAGGKPKKVKIKIEITYNKETGVVKIKIEVEVDGKTYTIEIEVKLKPGQTIEELLKKLLESAGGSAGG [r6_20_TrROS_Hall] | 2.84 ± 0.24 | 4.75 ± 0.34 | 4.46 ± 0.54
SAGGSAGGSAGMAIGLEEILARLDPERIISVEVDEENPLVTVKLRPPSGETKTITFKLSLSAGGSAGGSAGG [r17_374_JUSTAS] | 1.21 ± 0.03 | 0.669 ± 0.11 | 1.06 ± 0.07
SAGGSAGGMELLPDGTLVLTLKAPSLEEALKAAEALAPPGAEVEIRFDEETKEVVIVIKLPPPESAGGSAGG [r6_859_TrROS_Hall] | 2.46 ± 0.1 | 4.06 ± 0.046 | 3.85 ± 0.082
SAGGSAGGSAGMKTRTITVSVSPEESEEEVRERVEAELPPGSVVEVTRLPDGTVVVTVEESAGGSAGGSAGG [r17_20_JUSTAS] | 0.401 ± 0.043 | 1.99 ± 0.035 | 1.55 ± 0.048
SAKFRPVEIPFEIKLEEKDPEDGKKEEREFDIKVKIMVFPDNGMVFISIEFIELGRPITIMLPPGAPIISAG [r14_587_TrROS] | 2.61 ± 0.17 | 3.37 ± 0.092 | 3.08 ± 0.28
SAGPVLYRVTITVEVSSSGEKGKTLTLEFLVPPSVSGEEVRDRVLALLKAQGYKVEKITVTVTPLPSSASAG [r14_979_JUSTAS] | 4.03 ± 0.21 | 5.36 ± 0.13 | 5.27 ± 0.14
SAGGSAGGSAKPKPVETVEVTVTGKDGKKYKVTVVYDEKTGKLYVKYNGKIYKVDSLEEALKSAGGSAGGSA [r18_67_TrROS_Hall] | 2.44 ± 0.19 | 4.12 ± 0.073 | 3.86 ± 0.2
SAGGMEVVEIKYDPETGTVTVTVAIPESLSFDEVAPEVEALVKEKTGRPVEITVDPATGTVTATVPRSAGGS [r8_314_JUSTAS] | 0.832 ± 0.031 | 1.39 ± 0.058 | 1.15 ± 0.072
SAGGDEDKPKPKIEPKKEIEIVLPYPEDEVTPEELKARIEEETGEKITEIEVTRIPNSNEYKVKFTVESAGG [r13_457_JUSTAS] | 0.227 ± 0.04 | 0.68 ± 0.15 | 0.577 ± 0.13
SEPWELVEERELPPNAVITFPNGEKLEIDPEKARVRVWRRPDSVRVLVVLKDGTVLEFEFYAPPRVTDDDSA [r9_348_TrMRF] | 2.62 ± 0.074 | 2.58 ± 0.033 | 2.69 ± 0.1
NKRIKIFIGGDDPSMAEQIQQWLQDNGYNVEVHVFTSPEDMKKAREWAEQNDIVIVIQVPPPPPKDPGDNNS [r1_497_TrROS] | 2.48 ± 0.12 | 3.487 ± 0.024 | 3.3 ± 0.074
SAGGSVDIKRIEIYHPPDDKIYIRIDAVASPEHPEDPELRKAQAEALRKPVIEELMKKLGIEPEELSAGGSA [r2_306_JUSTAS] | 0.241 ± 0.075 | 0.61 ± 0.073 | 0.468 ± 0.12
SAMDLLRERGYDVEEVTKLRDEVLPNGTIVTLYEVTVRLPDRVITTPIKVSGESEEEAEKLAYETVARESAG [r14_726_JUSTAS] | 0.49 ± 0.031 | 0.582 ± 0.071 | 0.543 ± 0.069
SAGGSAGGSAMIEISSYTLPNGELVVEVTIPDPNSDKTTTLRGKYSSLEEAREEAEKLYLQSAGGSAGGSAG [r3_174_JUSTAS] | 1.52 ± 0.051 | 1.84 ± 0.12 | 1.69 ± 0.12
SAGGSAGGSAGKKPIKEVTITLPPGAKIVKIEIEKTEDGKYILKITVEVDGKLYEFTFELSAGGSAGGSAGG [r11_1013_TrROS_Hall] | 3.13 ± 0.25 | 4.27 ± 0.14 | 3.98 ± 0.29
SPESIEVQISKSSSTSPSGGSEEIYTVTVTYPATGKTLTKNFTATLNPDGTTNPNGSPEELAAKLAAELLAS [r1_77_JUSTAS] | 1.37 ± 0.079 | 2.23 ± 0.026 | 2 ± 0.1

Sequence | folding stability dG unfold [1] [kcal/mol] | folding stability dG unfold [2] [kcal/mol] | folding stability dG unfold [3] [kcal/mol]
SAAEIDEDGTIRIVLSEEAVKNMSEEELKALAEELAKLLPPGAKVEIKIVKPKPVKEEKKLYDKDGKEVSAG [r14_312_TrROS_Hall] | 1.19 ± 0.083 | 0.0971 ± 0.054 | 0.788 ± 0.15
SAGGSAGGSAGGSKTVLLKVNGKLVLKELKVEVELEAEPETTTTTTTTTTLKPGETKTLSAGGSAGGSAGGS [r4_215_TrROS_Hall] | -0.499 ± 0.17 | 0.397 ± 0.11 | 0.109 ± 0.096
SSPEEMAEKLAKELNFDKIEIKTEKLDLPSGPSEATVATAKLYNPATGKEYVVKILKFPDGSYEIVIEKKSA [r9_724_JUSTAS] | 1.44 ± 0.042 | 2.627 ± 0.015 | 2.28 ± 0.07
SMYYYGKFTFTNPTGGPTIGDVYIITKSKEEAEALAKEEASKKNVKVEIEIKEIPESEYENPEKVKELLSSA [r9_864_JUSTAS] | 0.285 ± 0.2 | 1.02 ± 0.19 | 0.788 ± 0.37
SAGGMGISTEPEISFERKTLPDGTYVLEIHTTTTTTDSSGVVTTTTSTKTVKFSPDNPEKIKELIEALSAGG [r13_412_JUSTAS] | 2.67 ± 0.098 | 2.51 ± 0.058 | 2.54 ± 0.14
SAGGMEVKEISIPVPENLTPEQAVEKVKELFEKHPELEHVLVYFELPNGKPLVVEVDKNGKITKVEEKSAGG [r13_690_TrMRF] | 0.889 ± 0.041 | 2.28 ± 0.048 | 1.88 ± 0.095
SPVTVTITLPNGETITLTFPAGMTAEELKAAVLAELKRLLPPGAKIEVVDIEVTEVVAPGETVTVTVRLTSA [r9_178_TrROS_Hall] | 3.36 ± 0.13 | 4.61 ± 0.15 | 4.16 ± 0.11
SASLEPVATTAVPLPDGTTATLTLYRDPATGRYTVRVTVTHPDGAAETRVLEVDSEEEALSRVVLSPGASAG [r14_749_JUSTAS] | 2.38 ± 0.049 | 3.421 ± 0.018 | 3.12 ± 0.075
SGEFKPIATIDAKDGKPEAIIDSVKELLPDSGPVLVVLDLPDGPPKVNVIDPSTGKVREFVPGGNITIVPSA [r9_853_TrMRF] | 0.355 ± 0.037 | 1.39 ± 0.021 | 1.03 ± 0.056
SAGGSASSSLEVEVTAESPDPETGELRVTAVITTTYFDPSTGSTSTTTTTLTLTPEELAALVAALSSAGGSA [r2_357_JUSTAS] | 3.92 ± 0.071 | 4.35 ± 0.049 | 4.332 ± 0.043
SAGGSAGGSMKTITVTFSSEEEAKKAAEEILKKEGFDEKIKEVTLTYSKEGNVLTGTVTVKTPSAGGSAGGS [r12_7_JUSTAS] | 0.449 ± 0.042 | 1.2 ± 0.046 | 0.945 ± 0.089
PFRVMVDLERDPEDGWYKVTIMVQAKDGRPITPELIENAAREIFKQGFPIKKIKLEPYPNGYVHFKIEIPLS [r1_408_TrROS] | 2.15 ± 0.035 | 2.88 ± 0.037 | 2.65 ± 0.064
SAGGSAGGSAGGSSMAIKKVSEFLLRPENGELIKVTVYRKPGPETIVTVIGDKTYTFEPSAGGSAGGSAGGS [r4_114_JUSTAS] | -0.855 ± 0.25 | 0.336 ± 0.11 | 0.0399 ± 0.1
SAGGSMVVVVKLKDGKKIELSVEELKKLAEELGLEPEEEDKEERLERIAKALAEKLGLEVEKVEVLSAGGSA [r2_83_TrROS_Hall] | 4.09 ± 0.29 | 2.74 ± 0.22 | 3.33 ± 0.35
SMYRIRVKIKIKNPKTGKVIELPELEGMSLEEVLEIAKELKEKFPGAEVEVEIVEVEPLPPLTEEQLKKLSA [r9_421_TrROS_Hall] | 1.91 ± 0.069 | 2.33 ± 0.083 | 2.11 ± 0.073
SAGTIAKEIAEKLGLPGLKVKDVKFEPDPDGPIKEIEITVEFPNGRYWKIDIRYDPGNIVIDIEPVPPSAGG [r19_392_TrROS] | 1.98 ± 0.056 | 2.29 ± 0.029 | 2.17 ± 0.1
SAMTLTLTVPPGAKVRVRITNENGETTEIEVEPGETVTITLPAGSTVRVEVEVVDPDGRKRTETFTLKPSAG [r14_568_TrROS_Hall] | 3.46 ± 0.11 | 3.22 ± 0.07 | 3.27 ± 0.15
SAGDNMYKYDYENPWYGIKIEVWVSPNGQIVSIKVKIEKVPPVPPKPPIDPEDMVPDPDGKYRSPNDLDSAG [r5_685_TrROS] | 1.4 ± 0.098 | 2.26 ± 0.026 | 1.95 ± 0.099
SAGKKKKIKIKVTIVVPVKTKEDVELMKELAEKFAPELGKETAKKLGLPPEVEEIEVDVNILIVSPEELSAG [r5_436_TrMRF] | 1.48 ± 0.14 | 1.89 ± 0.13 | 1.88 ± 0.2
SAGGSAGGKKPPKIKVIYIKADSPEALKKLKIKAKPGDTILIYVDGKLYRLTVIDGKIKIEELPSAGGSAGG [r6_550_TrROS_Hall] | 2.12 ± 0.089 | 3.73 ± 0.065 | 3.35 ± 0.14
SKPVLVKVKIVTKNKNGKKIEKELVIEMSEEDLEKLLEELLNDPNLKDVEKIEIEVVDAETGEVYTFTFPSA [r9_97_TrROS_Hall] | 2.01 ± 0.19 | 3.15 ± 0.062 | 2.89 ± 0.14
